Results published in patent US20220064275A1 (SCHOLAR ROCK, published 2022).

Experiments:
[1] = molecular target: T1, human LRRC33-proTGFβ1 complex (human, UniProt Q86YC3 19-650; P01137 30-390); experiment: BLI (Octet)
T1 construct: also called hLRRC33-proTGFβ1; hLRRC33

[2] = molecular target: T2, human LTBP1-proTGFβ1 complex (human, UniProt Q14766 873-1507); experiment: BLI (Octet)
T2 construct: range 873-1507; biotinylated in Octet and MSD-SET; also called hLTBP1-proTGFβ1; hLTBP1

[3] = molecular target: T3, human LTBP3-proTGFβ1 complex (human, UniProt Q9NS15 866-1039); experiment: BLI (Octet)
T3 construct: range 866-1039; also called hLTBP3-proTGFβ1; hLTBP3

[4] = molecular target: T4, human GARP-proTGFβ1 complex (human, UniProt Q14392 20-627; P01137 30-390); experiment: BLI (Octet)
T4 construct: also called hGARP-proTGFβ1; hGARP

[5] = molecular target: hGARP-proTGFβ1 complex on cells (human, UniProt Q14392 20-662; P01137 30-390); experiment: cell-based or functional assay
[6] = molecular target: hLTBP3-proTGFβ1 complex made by transfected cells (cell-based potency assay) (human, UniProt Q9NS15 44-1303; P01137 30-390); experiment: cell-based or functional assay
[7] = molecular target: hLTBP1-proTGFβ1 complex made by transfected cells (cell-based potency assay) (human, UniProt Q14766 347-1721; P01137 30-390); experiment: cell-based or functional assay
[8] = molecular target: hLRRC33-proTGFβ1 complex on cells (human, UniProt Q86YC3 19-692; P01137 30-390); experiment: cell-based or functional assay
[9] = molecular target: T1, human LRRC33-proTGFβ1 complex; experiment: MSD-SET, solution equilibrium titration
Method: (§1) MSD-SET assays were performed to measure affinities of the antibodies at equilibrium. Briefly, each test antibody was diluted 3-5 fold and samples were mixed with biotinylated antigen in a 48-well dish. The SET samples were equilibrated for 20-24 hours at room temperature. Meanwhile, a capture plate was coated with IgG (20 nM) and incubated overnight at 4° C. or 30 minutes at room temperature, followed by a blocking step with 5% BSA. After the capture plate was washed three times, SET samples were added and incubated for 150 seconds. The plate was washed once to remove unbound complexes. 250 ng/ml SA-Sulfotag was added then washed 3 times. 2× Read Buffer was added, and signals from the labeled bound complexes were read with the use of QuickPlex™ SQ 120 instrument.

[10] = molecular target: T2, human LTBP1-proTGFβ1 complex; experiment: MSD-SET, solution equilibrium titration
Method: as §1

[11] = molecular target: T3, human LTBP3-proTGFβ1 complex; experiment: MSD-SET, solution equilibrium titration
Method: as §1

[12] = molecular target: T4, human GARP-proTGFβ1 complex; experiment: MSD-SET, solution equilibrium titration
Method: as §1

Chain of hGARP-proTGFβ1 complex on cells (Q14392 20-662 limits assumed, chain 1 of 2): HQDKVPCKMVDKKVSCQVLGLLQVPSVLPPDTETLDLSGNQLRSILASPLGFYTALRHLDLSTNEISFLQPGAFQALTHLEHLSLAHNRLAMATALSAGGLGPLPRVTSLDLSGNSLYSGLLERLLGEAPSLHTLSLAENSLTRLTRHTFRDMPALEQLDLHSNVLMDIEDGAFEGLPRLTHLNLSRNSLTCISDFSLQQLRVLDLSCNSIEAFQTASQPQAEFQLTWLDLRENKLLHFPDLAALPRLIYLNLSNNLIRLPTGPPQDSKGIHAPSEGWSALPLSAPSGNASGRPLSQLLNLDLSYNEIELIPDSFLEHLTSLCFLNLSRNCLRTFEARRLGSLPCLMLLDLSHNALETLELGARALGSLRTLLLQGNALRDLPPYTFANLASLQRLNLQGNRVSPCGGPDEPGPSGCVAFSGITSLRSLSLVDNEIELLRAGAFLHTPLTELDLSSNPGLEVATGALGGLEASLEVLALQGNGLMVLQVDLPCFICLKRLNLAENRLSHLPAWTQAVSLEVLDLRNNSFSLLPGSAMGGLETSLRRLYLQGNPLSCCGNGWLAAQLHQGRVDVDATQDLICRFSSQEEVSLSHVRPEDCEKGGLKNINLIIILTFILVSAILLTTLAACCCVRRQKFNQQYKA
Chain of hGARP-proTGFβ1 complex on cells (P01137 30-390 limits assumed, chain 2 of 2): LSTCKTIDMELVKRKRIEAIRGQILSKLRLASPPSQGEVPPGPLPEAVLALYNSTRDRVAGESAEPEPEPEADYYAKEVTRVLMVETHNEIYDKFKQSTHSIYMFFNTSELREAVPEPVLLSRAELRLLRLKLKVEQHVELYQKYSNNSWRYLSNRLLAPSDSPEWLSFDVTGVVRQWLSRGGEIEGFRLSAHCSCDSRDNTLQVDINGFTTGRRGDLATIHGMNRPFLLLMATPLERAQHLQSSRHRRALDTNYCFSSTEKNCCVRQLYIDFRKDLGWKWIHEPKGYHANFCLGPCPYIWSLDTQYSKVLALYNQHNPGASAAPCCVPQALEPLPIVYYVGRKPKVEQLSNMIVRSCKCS
T1 sequence (Q86YC3 other isoform, or with tags, fused parts or gaps limits assumed, chain 1 of 2): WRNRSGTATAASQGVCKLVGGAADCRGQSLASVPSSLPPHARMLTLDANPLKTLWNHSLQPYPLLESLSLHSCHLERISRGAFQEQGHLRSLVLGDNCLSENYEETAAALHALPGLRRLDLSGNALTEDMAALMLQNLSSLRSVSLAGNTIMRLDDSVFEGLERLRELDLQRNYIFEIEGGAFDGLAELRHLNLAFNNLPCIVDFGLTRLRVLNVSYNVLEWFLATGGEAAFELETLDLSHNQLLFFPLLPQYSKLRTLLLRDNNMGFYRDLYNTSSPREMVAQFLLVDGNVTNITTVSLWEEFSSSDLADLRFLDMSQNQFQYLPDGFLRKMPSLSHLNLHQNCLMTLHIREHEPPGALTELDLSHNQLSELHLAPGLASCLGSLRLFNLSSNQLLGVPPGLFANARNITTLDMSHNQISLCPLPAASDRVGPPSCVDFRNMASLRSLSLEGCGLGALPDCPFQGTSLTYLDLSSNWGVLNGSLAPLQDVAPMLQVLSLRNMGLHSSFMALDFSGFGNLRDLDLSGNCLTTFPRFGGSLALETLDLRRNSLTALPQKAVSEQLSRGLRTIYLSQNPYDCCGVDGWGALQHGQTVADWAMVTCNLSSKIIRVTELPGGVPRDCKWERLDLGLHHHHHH
T1 sequence (P01137 30-390 limits assumed, chain 2 of 2): as the sequence (P01137 30-390 limits assumed, chain 2 of 2) above
T4 sequence (Q14392 20-627, chain 1 of 2): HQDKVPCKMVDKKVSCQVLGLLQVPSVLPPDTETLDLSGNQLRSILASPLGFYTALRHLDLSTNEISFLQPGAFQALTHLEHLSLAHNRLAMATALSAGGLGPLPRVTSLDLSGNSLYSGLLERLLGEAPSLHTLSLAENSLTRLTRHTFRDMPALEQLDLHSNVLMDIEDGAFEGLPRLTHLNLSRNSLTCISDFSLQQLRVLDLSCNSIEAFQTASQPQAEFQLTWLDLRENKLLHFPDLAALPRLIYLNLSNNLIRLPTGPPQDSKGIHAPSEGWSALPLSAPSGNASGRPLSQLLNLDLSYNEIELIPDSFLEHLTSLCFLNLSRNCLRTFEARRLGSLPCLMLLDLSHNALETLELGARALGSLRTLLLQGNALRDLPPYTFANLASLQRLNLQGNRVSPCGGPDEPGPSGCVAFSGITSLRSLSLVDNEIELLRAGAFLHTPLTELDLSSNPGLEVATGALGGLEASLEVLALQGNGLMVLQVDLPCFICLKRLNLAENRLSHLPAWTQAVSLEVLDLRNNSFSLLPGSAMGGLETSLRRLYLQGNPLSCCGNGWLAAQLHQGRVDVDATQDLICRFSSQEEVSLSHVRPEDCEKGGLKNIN
T4 sequence (P01137 30-390, chain 2 of 2): as the sequence (P01137 30-390 limits assumed, chain 2 of 2) above
T2 sequence (Q14766 873-1507 limits assumed, chain 1 of 2): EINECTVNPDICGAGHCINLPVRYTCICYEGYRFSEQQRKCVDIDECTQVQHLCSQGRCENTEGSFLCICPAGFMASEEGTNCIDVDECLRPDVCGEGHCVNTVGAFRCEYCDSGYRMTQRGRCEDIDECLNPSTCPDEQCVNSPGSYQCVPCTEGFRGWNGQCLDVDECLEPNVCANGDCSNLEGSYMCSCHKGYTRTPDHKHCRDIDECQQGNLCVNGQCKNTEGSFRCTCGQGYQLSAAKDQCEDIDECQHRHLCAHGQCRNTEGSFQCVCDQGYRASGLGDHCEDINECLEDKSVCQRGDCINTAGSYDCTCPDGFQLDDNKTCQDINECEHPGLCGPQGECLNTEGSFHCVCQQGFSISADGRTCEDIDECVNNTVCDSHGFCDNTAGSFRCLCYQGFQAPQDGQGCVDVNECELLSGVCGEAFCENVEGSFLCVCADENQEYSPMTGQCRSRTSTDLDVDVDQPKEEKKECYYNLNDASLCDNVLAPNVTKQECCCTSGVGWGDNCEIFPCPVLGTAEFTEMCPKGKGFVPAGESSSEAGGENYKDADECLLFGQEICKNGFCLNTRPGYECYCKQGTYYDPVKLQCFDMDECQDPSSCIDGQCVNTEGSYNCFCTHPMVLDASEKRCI
T2 sequence (chain, as listed by the source limits assumed, chain 2 of 2): as the sequence (P01137 30-390 limits assumed, chain 2 of 2) above
T3 sequence (Q9NS15 866-1039 limits assumed, chain 1 of 2): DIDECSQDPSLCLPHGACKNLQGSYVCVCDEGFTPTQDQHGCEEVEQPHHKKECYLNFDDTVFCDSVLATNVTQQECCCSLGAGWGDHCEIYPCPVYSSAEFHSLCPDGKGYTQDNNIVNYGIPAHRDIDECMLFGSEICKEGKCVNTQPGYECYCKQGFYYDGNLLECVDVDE
T3 sequence (chain, as listed by the source limits assumed, chain 2 of 2): as the sequence (P01137 30-390 limits assumed, chain 2 of 2) above

Binder	Kd [1] [nM]	Kd [2] [nM]	Kd [3] [nM]	Kd [4] [nM]	IC50, reporter cell assay of TGFβ1 activation [5] [nM]	IC50, reporter cell assay of TGFβ1 activation [6] [nM]	IC50, reporter cell assay of TGFβ1 activation [7] [nM]	IC50, reporter cell assay of TGFβ1 activation [8] [nM]	Kd [9] [nM]	Kd [10] [nM]	Kd [11] [nM]	Kd [12] [nM]
Ab21 (antibody, V domains shown) VH: EVQLVESGGGLVQPGGSLRLSCAASGFTFSSFSMDWVRQAPGKGLEWVSYISPDASTIYYADSVKGRFTISRDNAKNSLYLQMNSLRAEDTAVYYCARGVLDYGDMLDPWGQGTLVTVSS VL: DIQMTQSPSSLSASVGDRVTITCQASQDITNYLNWYQQKPGKAPKLLIYDASNLETGVPSRFSGSGSGTDFTFTISSLQPEDIATYYCQQADNHPPWTFGGGTKVEIK	0.455	0.225	0.268	0.833	0.401	0.765	1.61	0.596				
Ab22 (antibody, IgG4, V domains shown) VH: EVQLVESGGGLVQPGGSLRLSCAASGFTFGSFSMNWVRQAPGKGLEWVSYIHSDASTIYYADSVKGRFTISRDNAKNSLYLQMNSLRAEDTAVYYCARGVLDYGDMLDPWGQGTLVTVSS VL: DIQMTQSPSSLSASVGDRVTITCQASQDITNYLNWYQQKPGKAPKLLIYDASNLETGVPSRFSGSGSGTDFTFTISSLQPEDIATYYCQQADNHPPWTFGGGTKVEIK	0.415	0.318	0.329	0.974					0.2	0.05	0.033	0.027
Ab23 (antibody, V domains shown) VH: EVQLVESGGGLVQPGGSLRLSCAASGFTFSSFSMNWVRQAPGKGLEWVSYISPSADTIYYADSVKGRFTISRDNAKNTLYLQMNSLRAEDTAVYYCARGVLDYGDMLDPWGQGTLVTVSS VL: DIQMTQSPSSLSASVGDRVTITCQASQDITNYLNWYQQKPGKAPKLLIYDASNLETGVPSRFSGSGSGTDFTFTISSLQPEDIATYYCQQADNHPPWTFGGGTKVEIK	0.455	0.417	0.468	1.34	0.264	0.879	0.835	0.579				
Ab24 (antibody, IgG4, V domains shown) VH: EVQLVESGGGLVQPGRSLRLSCAASGFTFSSFAMYWVRQAPGKGLEWVSYISPDASTIYYADSVKGRFTISRDNAKNSLYLQMNSLRAEDTAVYYCARGVLDYGDMLDPWGQGTLVTVSS VL: DIQMTQSPSSLSASVGDRVTITCQASQDITNYLNWYQQKPGKAPKLLIYDASNLETGVPSRFSGSGSGTDFTFTISSLQPEDIATYYCQQADNHPPWTFGGGTKVEIK	0.41	0.246	0.198	0.665					0.18	0.024	0.021	0.019
Ab25 (antibody, V domains shown) VH: EVQLVESGGGLVQPGGSLRLSCAASGFTFGSFSMDWVRQAPGKGLEWVSYISPDASTIYYADSVKGRFTISRDNAKNSLYLQMNSLRAEDTAVYYCARGVLDYGDMLDPWGQGTLVTVSS VL: DIQMTQSPSSLSASVGDRVTITCQASQDITNYLNWYQQKPGKAPKLLIYDASNLETGVPSRFSGSGSGTDFTFTISSLQPEDIATYYCQQADNHPPWTFGGGTKVEIK	0.409	0.217	0.152	0.488	0.442	0.538	6.08	0.653				
Ab26 (antibody, IgG4, V domains shown) VH: EVQLVESGGGLVQPGGSLRLSCAASGFTFSSFSMDWVRQAPGKGLEWVSYISPDASTIYYADSVKGRFTISRDNAKNTLYLQMNSLRAEDTAVYYCARGVLDYGDMLDPWGQGTLVTVSS VL: DIQMTQSPSSLSASVGDRVTITCQASQDITNYLNWYQQKPGKAPKLLIYDASNLETGVPSRFSGSGSGTDFTFTISSLQPEDIATYYCQQADNHPPWTFGGGTKVEIK	0.36	0.221	0.173	0.625	0.262	0.716	0.713	0.341	0.13	0.028	0.023	0.014
Ab29 (antibody, IgG4, V domains shown) VH: EVQLVESGGGLVQPGRSLRLSCAASGFTFSSFAMNWVRQAPGKGLEWVSYISPDASTIYYAGSVKGRFTISRDNAKNSLYLQMNSLRAEDTAVYYCVRAVLDYGDMLDPWGQGTLVTVSS VL: DIQMTQSPSSLSASVGDRVTITCQASQDITNYLNWYQQKPGKAPKLLIYDASNLETGVPSRFSGSGSGTDFTFTISSLQPEDIATYYCQQADNHPPWTFGGGTKVEIK	0.302	0.189	0.121	0.307	0.264	0.803	0.471	0.458	0.043	0.012	0.011	0.0055
Ab30 (antibody, IgG4, V domains shown) VH: EVQLVESGGGLVQPGGSLRLSCAASGFTFSSFSMDWVRQAPGKGLEWVSYISPDASTIYYADSVKGRFTISRDNAKNSLYLQMNSLRAEDTAVYYCARGTLDYGDMLDPWGQGTLVTVSS VL: DIQMTQSPSSLSASVGDRVTITCQASQDITNYLNWYQQKPGKAPKLLIYDASNLETGVPSRFSGSGSGTDFTFTISSLQPEDIATYYCQQADNHPPWTFGGGTKVEIK	0.535	0.332	0.261	0.833					0.14	0.031	0.026	0.022
Ab31 (antibody, IgG4, V domains shown) VH: EVQLVESGGGLVQPGGSLRLSCAASGFTFSSFSMDWVRQAPGKGLEWVSYISPDASTIYYADSVKGRFTISRDNAKNTLYLQMNSLRAEDTAVYYCARAVLDYGDMLDPWGQGTLVTVSS VL: DIQMTQSPSSLSASVGDRVTITCQASQDITNYLNWYQQKPGKAPKLLIYDASNLETGVPSRFSGSGSGTDFTFTISSLQPEDIATYYCQQADNHPPWTFGGGTKVEIK	0.41	0.236	0.181	0.581					0.096	0.019	0.014	0.019
Ab32 (antibody, IgG4, V domains shown) VH: EVQLVESGGGLVQPGGSLRLSCAASGFTFSSFSMNWVRQAPGKGLEWVSYISPSADTIYYADSVKGRFTISRDNAKNTLYLQMNSLRAEDTAVYYCARGVWDMGDMLDPWGQGTLVTVSS VL: DIQMTQSPSSLSASVGDRVTITCQASQDITNYLNWYQQKPGKAPKLLIYDASNLETGVPSRFSGSGSGTDFTFTISSLQPEDIATYYCQQADNHPPWTFGGGTKVEIK	0.698	0.269	0.215	0.496					0.087	0.037	0.026	0.015
Ab33 (antibody, IgG4, V domains shown) VH: EVQLVESGGGLVQPGGSLRLSCAASGFTFSSFSMNWVRQAPGKGLEWVSYISPSADTIYYADSVKGRFTISRDNAKNTLYLQMNSLRAEDTAVYYCAHGVLDYGDMLDPWGQGTLVTVSS VL: DIQMTQSPSSLSASVGDRVTITCQASQDITNYLNWYQQKPGKAPKLLIYDASNLETGVPSRFSGSGSGTDFTFTISSLQPEDIATYYCQQADNHPPWTFGGGTKVEIK	0.339	0.179	0.111	0.265	0.198	1.11	1.56	0.738	0.046	0.011	0.007	0.0078
